From article doi:10.1101/2022.07.22.501112 (2022)
Numbered stars: 1 amine (or outer) side, 2 acyl side, 3 side chain; on linkers, the order of the positions; unused ones are H or OH. Square brackets hold non-standard residues; d marks the D form. Ends that are not written are not given here. Lys(Me3) = C[N+](C)(C)CCCC[C@H](N)C(=O)O; Ethylenediamine = C(CN[*:2])N[*:1]; 5‑FAM = fluorescent label

Molecular target: T1, E. coli expressed BAHD1(aa:588-780) (UniProt Q8TBE0 588-780)
T1 chain: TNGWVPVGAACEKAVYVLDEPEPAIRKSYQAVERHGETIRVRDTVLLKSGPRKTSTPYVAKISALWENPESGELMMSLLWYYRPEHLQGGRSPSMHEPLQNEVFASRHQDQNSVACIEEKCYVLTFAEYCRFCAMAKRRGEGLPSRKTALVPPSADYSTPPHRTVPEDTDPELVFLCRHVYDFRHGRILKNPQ
Assay: FP

Kd: 700 nM
Binder: PRKQLATKAAR[Lys(Me3)]SAPATGG-{Ethylenediamine-4‑Abu-5‑FAM} [H3 16-35 K27me3 peptide]
